Where no end group is shown, it is not given here. The star is where a group is joined. Biotin = O=C1N[C@H]2[C@H](CS[C@H]2CCCCC(=O)*)N1
Key:
[1] = molecular target: proteins of hBMECs (protein extract coated in microtiter wells, ELISA with recombinant ligands) (human (endogenous in hBMECs)); experiment: ELISA; protein extract of hBMECs coated in microtiter wells, blocked; recombinant ligand added; detected with HisProbe-HRP conjugate and TMB substrate, absorbance at 450 nm; semi-quantitative
[2] = molecular target: proteins of hBMECs (protein extract coated in microtiter wells, ELISA with synthetic analogues) (human (endogenous in hBMECs)); experiment: ELISA; protein extract of hBMECs coated in microtiter wells, blocked; biotinylated synthetic peptide added; detected with streptavidin-HRP conjugate; semi-quantitative

Row | Molecule | absorbance at 450 nm (absorbance at 450 nm) [1] | absorbance [2] [absorbance]
1 | recombinant domain III of protein E of West Nile virus (domain or fragment) | 2.2 | –
2 | recombinant NadA (neisserial adhesin A) of Neisseria meningitidis, globular domain with the first coiled-coil structure (domain or fragment) | 1.14 | –
3 | GTTYGVCSK(Biotin) [DIII-1 synthetic analogue (…-biotin)] | – | 2.06
